One assay has as its target MDM2 (UniProt Q00987). Description: cell-based or functional assay.
The target of assay [1] is HPV16 E6 (human papillomavirus type 16 (HPV16)) (UniProt P03126). Nature of the assay: cell-based or functional assay.
Chain of HPV16 E6 (human papillomavirus type 16 (HPV16)) (P03126 whole entry): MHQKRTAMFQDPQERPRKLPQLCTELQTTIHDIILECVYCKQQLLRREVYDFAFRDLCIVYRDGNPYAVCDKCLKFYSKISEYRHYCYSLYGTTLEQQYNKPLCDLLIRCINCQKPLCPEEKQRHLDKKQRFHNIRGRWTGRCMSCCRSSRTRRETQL

Chain of exogenous CH1 domain of p300 (pcDNA3.1/CH1) (Q09472 whole entry, the tested form may be a part): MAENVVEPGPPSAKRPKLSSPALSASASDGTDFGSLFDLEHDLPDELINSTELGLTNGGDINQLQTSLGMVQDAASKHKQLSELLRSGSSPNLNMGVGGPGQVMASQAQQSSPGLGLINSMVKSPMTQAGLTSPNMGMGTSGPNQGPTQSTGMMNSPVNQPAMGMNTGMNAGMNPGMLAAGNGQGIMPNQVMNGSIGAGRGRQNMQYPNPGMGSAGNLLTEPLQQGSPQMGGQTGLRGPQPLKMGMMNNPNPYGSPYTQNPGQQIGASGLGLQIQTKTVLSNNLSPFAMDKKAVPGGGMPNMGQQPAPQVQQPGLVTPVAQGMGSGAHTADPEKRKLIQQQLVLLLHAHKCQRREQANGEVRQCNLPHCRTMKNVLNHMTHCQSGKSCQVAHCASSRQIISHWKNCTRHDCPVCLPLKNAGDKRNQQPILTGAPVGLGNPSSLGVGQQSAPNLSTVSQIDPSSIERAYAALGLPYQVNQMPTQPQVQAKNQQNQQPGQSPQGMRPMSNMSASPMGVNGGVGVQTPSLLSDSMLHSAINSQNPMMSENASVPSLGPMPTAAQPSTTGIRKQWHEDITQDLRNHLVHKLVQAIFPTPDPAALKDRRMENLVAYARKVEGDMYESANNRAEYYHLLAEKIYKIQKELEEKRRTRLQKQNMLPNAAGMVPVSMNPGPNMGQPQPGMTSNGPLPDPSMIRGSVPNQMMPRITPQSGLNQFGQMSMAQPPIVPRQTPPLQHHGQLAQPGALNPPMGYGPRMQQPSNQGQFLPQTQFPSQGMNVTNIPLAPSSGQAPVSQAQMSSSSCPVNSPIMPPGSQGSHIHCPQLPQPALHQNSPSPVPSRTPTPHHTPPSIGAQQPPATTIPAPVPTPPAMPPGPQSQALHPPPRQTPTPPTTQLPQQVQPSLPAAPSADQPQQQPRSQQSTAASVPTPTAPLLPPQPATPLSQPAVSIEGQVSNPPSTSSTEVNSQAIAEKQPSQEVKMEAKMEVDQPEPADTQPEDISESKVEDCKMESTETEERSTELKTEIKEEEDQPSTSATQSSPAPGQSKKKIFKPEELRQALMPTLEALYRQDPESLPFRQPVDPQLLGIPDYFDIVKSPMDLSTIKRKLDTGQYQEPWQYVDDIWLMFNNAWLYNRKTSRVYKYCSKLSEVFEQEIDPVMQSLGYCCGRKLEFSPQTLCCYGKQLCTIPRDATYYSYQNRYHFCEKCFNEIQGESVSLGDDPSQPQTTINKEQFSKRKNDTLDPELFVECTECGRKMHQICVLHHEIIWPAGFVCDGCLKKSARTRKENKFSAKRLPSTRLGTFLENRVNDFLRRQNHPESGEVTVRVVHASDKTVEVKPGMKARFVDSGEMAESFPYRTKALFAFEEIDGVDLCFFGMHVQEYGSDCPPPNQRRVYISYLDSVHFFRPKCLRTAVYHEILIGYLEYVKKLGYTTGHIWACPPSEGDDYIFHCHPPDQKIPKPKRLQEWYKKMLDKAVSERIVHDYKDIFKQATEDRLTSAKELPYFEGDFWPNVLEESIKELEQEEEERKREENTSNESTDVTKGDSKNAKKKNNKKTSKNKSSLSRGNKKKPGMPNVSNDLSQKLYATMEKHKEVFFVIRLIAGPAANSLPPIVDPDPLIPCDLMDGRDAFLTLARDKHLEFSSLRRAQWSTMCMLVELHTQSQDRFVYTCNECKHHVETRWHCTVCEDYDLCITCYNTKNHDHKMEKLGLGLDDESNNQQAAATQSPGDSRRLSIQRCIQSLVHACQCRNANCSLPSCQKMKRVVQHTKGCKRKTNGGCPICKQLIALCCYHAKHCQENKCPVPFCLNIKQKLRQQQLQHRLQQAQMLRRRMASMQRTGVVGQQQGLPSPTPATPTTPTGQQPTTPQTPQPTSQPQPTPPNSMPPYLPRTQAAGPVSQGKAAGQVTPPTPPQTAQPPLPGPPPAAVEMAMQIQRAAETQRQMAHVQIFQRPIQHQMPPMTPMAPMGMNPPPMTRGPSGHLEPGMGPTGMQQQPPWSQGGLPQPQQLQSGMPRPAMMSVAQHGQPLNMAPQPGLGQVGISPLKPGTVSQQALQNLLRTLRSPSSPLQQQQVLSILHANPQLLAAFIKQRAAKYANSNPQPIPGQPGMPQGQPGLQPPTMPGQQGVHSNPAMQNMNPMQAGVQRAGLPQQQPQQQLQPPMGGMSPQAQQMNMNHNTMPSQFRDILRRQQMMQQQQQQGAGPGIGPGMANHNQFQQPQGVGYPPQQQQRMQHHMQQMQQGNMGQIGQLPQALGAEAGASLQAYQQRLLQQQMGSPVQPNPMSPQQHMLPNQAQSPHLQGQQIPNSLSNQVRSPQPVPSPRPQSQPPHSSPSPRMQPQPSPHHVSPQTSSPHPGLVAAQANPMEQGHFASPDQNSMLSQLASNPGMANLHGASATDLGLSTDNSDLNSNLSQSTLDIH
Chain of MDM2 (Q00987 whole entry): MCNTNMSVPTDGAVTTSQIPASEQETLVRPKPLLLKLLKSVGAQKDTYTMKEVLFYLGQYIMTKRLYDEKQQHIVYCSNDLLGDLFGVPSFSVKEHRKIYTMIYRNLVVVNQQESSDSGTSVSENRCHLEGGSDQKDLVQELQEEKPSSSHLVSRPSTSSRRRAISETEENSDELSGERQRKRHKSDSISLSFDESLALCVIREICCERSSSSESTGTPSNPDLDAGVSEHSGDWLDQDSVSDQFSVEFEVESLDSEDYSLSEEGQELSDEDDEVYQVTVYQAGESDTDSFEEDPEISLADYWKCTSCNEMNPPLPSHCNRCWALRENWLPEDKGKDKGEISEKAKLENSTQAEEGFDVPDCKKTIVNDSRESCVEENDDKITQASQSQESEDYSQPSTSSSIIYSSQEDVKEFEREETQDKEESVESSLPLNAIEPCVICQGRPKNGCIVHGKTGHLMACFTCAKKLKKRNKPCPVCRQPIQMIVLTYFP

“exogenous CH1 domain of p300 (pcDNA3.1/CH1) (from UniProt Q09472 332-417)” returned a p53 transcription activity (luciferase reporter), UMSCC74A/CH1 compared to UMSCC74A/empty cells with MDM2 of 68%. Moreover, in assay [1], the p53 transcription activity (luciferase reporter), UMSCC47/CH1 cells is 85% and the p53 transcription activity (luciferase reporter), UPCI:SCC090/CH1 cells was determined as 50%.

The values are drawn from patent publication US20140220159A1.
